Source: patent US20030118546A1 (Human Genome Sciences, published 2003)

Target: T1, TNFα (tumor necrosis factor alpha), soluble (UniProt P01375 77-233)
T1 construct: also called TNFa; TNF-alpha
Assay: co-precipitation with protein G-Sepharose, immunoblot with anti-Flag or anti-myc-HRP
From the text: The respective Fc-fusions were precipitated with protein G-Sepharose and co-precipitated soluble ligands were detected by immunoblotting with anti-Flag (Babco) or anti-myc-HRP (BMB).

T1 sequence (P01375 77-233 limits assumed): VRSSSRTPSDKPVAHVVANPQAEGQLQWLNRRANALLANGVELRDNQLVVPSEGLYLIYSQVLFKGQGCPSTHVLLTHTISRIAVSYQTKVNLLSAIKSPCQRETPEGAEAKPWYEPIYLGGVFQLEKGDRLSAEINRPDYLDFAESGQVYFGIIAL

B1: TRID-Fc (soluble extracellular ligand binding domain of TRID fused to the Fc portion of human immunoglobulin (IgG)) (Fc fusion)
chain: TTARQEEVPQQTVAPQQQRHSFKGEECPAGSHRSEHTGACNPCTEGVDYTNASNNEPSCFPCTVCKSDQKHKSSCTMTRDTVCQCKEGTFRNENSPEMCRKCSRCPSGEVQVSNCTSWDDIQCVEEFGANATVETPAAEETMNTSPGTPAPAAEETMNTSPGTPAPAAEETMTTSPGTPAPAAEETMTTSPGTPAPAAEETMTTSPGTPASSHY
notes: The extracellular domain is only predicted ('about 27 to about 240'); preparation is said to follow Pan et al., Science 276:111 (1997); also called Fc-extracellular domain of TRID; TNFR-5; not shown: Fc portion of human immunoglobulin (IgG)
B1: no binding.
